In paper PMC2746561 one finds stoichiometry N (per tubulin dimer) and stoichiometry N data, which are given here for one substance.

Assay [1] concerns the target microtubules (polymerized tubulin) (UniProt Q6B856). In words: co-sedimentation.
The target of assay [2] is full Ska1 complex (Rama1/Ska1/Ska2) (human) (UniProt Q96BD8). In words: SEC + other: sucrose gradient sedimentation.

Chain of full Ska1 complex (Rama1/Ska1/Ska2) (Q96BD8 whole entry): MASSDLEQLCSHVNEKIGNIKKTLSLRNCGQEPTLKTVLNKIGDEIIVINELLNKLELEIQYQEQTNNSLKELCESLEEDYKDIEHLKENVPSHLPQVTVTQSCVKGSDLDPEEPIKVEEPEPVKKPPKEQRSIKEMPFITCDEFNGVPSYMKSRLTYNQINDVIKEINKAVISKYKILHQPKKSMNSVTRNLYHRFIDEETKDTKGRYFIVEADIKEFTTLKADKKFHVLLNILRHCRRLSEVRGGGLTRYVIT
Chain of full Ska1 complex (Rama1/Ska1/Ska2) (Q8WVK7 whole entry): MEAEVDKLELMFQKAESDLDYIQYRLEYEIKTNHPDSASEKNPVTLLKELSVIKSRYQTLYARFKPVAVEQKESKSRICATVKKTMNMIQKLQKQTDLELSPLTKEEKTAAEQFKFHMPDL
Chain of full Ska1 complex (Rama1/Ska1/Ska2) (Q8IX90 whole entry): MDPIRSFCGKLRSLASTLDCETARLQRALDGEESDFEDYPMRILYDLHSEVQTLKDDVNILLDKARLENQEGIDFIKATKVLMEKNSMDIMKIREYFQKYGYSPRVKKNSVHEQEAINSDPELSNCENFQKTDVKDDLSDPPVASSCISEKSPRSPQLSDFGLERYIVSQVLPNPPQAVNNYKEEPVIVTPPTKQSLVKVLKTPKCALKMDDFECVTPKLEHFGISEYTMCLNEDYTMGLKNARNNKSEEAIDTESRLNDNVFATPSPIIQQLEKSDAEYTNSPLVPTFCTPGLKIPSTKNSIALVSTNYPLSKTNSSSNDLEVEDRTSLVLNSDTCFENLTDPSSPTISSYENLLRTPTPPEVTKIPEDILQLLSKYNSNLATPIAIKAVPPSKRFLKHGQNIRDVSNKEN

One may read the stoichiometry N as a count of units in the complex or per binding partner. “full Ska1 complex (Rama1/Ska1/Ska2) (from UniProt Q96BD8 1-255; Q8WVK7 1-121; Q8IX90 1-412)” had a stoichiometry N (per tubulin dimer) in assay [1] of 1. Besides, the stoichiometry N in assay [2] came to 2.
